According to the supplement of paper PMC9170038:

System: MS2 coat protein
Test: apparent KD of MS2 coat protein; designed switch direction (-1 OFF switch, 1 ON switch): -1; higher = weaker reporter binding
Summary of the method: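 SNAP-549-labelled MS2 coat protein was titrated, doubling from 0.7 or 1.5 nM to 3 µM, over designed RNA switches transcribed on Illumina chips by stalled E. coli RNA polymerase. Runs were done without input, with 200 uM small-molecule ligand, or with an oligonucleotide input. Apparent KD is the per-design median over clusters of curve-fitted normalised fluorescence.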

[1] = Eterna round: R95, input ligand: microRNA oligo, concentration not stated
[2] = input ligand: microRNA oligo, concentration not stated
[3] = Eterna round: R95, input ligand: FMN 200 uM
[4] = Eterna round: R95, input ligand: none

Sequence | apparent KD of MS2 coat protein [1] [µM] | apparent KD of MS2 coat protein (input ligand: FMN 200 uM) [µM] | apparent KD of MS2 coat protein (input ligand: none) [µM] | further results
CCAGCGUAUGUGAGGAUAUGCUGGUCCUUGGAUCAGCAGAAGGCACAUGAGGAUCACCCAUGUGAUAACGUUGG [JL bmx4 3.39] (puzzle: Brourd's mod of Exclusion 4) | 0.0466 | – | – | –
CCUCCACAUGAGGAUCACCCAUGUCAGGAUAUCGUGUGUUUUUUUUCGGCCGCGCGUGCGAGAAGGGACGUCUU (puzzle: Exclusion 1) | 0.0191 | – | – | –
GGCCGUAAUAAGGAUAUCACUAGCCUCGGCUAGUGAGAAGGUAUUACAUGAGGAUCACCCAUGUGGUCAGGCCA [E6/4-B2] (Eterna round: R97, puzzle: Exclusion 6) | – | 0.903 | 0.285 | –
AAGACAAAUGUAGGAUAUGCGUGGCGAAGCUAUGCAGAAGGACAUGAGGAUCACCCAUGUCUAAGCGUCUGCGUACAGAUGCUA [JL eng1 1.35 mod 8] (Eterna round: R96, puzzle: Exclusion NG 1) | – | 0.0199 | 0.0184 | apparent KD of MS2 coat protein [2]: 0.0107 µM
UGAUCUAGCGGAGGAUAUACAUGAGGAUCACCCAUGUAGUAGUGAGUUGCGUACAGCUCACUUGUGUAGAAGGCCGCUAGAUCU [JL ENG2 3.59] (Eterna round: R96, puzzle: Exclusion NG 2) | – | 0.0165 | 0.0127 | apparent KD of MS2 coat protein [2]: 0.0101 µM
GGUUGACAUGAGGAUCACCCAUGUGAGGAUAUGCGAGAGAAAAAAGUGAGGAAGAAUAGCAGAAGGCGCUGUCG [salish99-ex1_r3_011] (puzzle: Exclusion 1) | 0.0417 | – | – | apparent KD of MS2 coat protein [3]: 0.0446 µM; apparent KD of MS2 coat protein [4]: 0.0211 µM
CAUAUAGUAGUCAGGAUAUGCGAAUAUAUAAUUAAGUAGAAGGGACAUGAGGAUCACCCAUGUAUAUUGUAAAG [EX-4 Malc #2] (puzzle: Brourd's mod of Exclusion 4) | 0.0261 | – | – | apparent KD of MS2 coat protein [3]: 0.0269 µM; apparent KD of MS2 coat protein [4]: 0.0284 µM
GGUAGAGUGGUAGGAUAUCCGUCUGUUUCAGUCGGAGAAGGACCACAGUCACUGGGUCCUAAUAUCAUGGAGACCUGAUCUACC [pwkr exNG1 F6.12] (Eterna round: R96, puzzle: Exclusion NG 1) | – | 2.2 | 0.284 | apparent KD of MS2 coat protein [2]: 0.316 µM
UGCGUUUGAGGAUAUACGUAGAAAUAGAUUCAUGUAAAACUACAUGAGGAUCACCCAUGUAGAAGGCAAGCGCU [Mat - Exclusion 2 - JL Mod - D39] (Eterna round: R97, puzzle: Exclusion 2) | – | 0.239 | 0.0264 | –
UGCCGGGCGUGAUCGGAUGACAUGAGGAUCACCCAUGUGCCAGCACAUAAUACCGCUCGCGGUUUUUUGCUCGUCAU [Eternabot (Original) Solution 12] (Eterna round: R97, puzzle: Sensor, turn-off variant 1) | – | 0.221 | 0.25 | –
AAACCCUGAGGAUAUACAUAACAACAAAGCCUCACAUGCCAACAUGAGGAUCACCCAUGUAGAAGGCAGGCCAA [Mod R3 Insanara 13 - Jieux - Exclusion 2] (Eterna round: R97, puzzle: Exclusion 2) | – | 0.0192 | 0.0101 | –
GAGUACAGAGGAUAUACAUGAGGAUCACCCAUGUGUUUCAGCUAGGAGACUAGCGAAAGUAGAAGGCUGUACUU [salish99_ex3_r4_005] (Eterna round: R97, puzzle: Exclusion 3) | – | 0.0257 | 0.00849 | –
UAUAAGAUAGGAUAUACAGGCCCGUCUUCAUAUUGAUCCCGACAUGAGGAUCACCCAUGUAGAAGGAUCGUAUA [Mod 23 - Jieux - Exclusion 2] (Eterna round: R97, puzzle: Exclusion 2) | – | 0.0233 | 0.0219 | –
UAAAAGUGAGGAUAUACGUGAAAUCCGCCAGGCGGAGAUCUACAUGAGGAUCACCCAUGUAGAAGGCACGGAAU [EX2 A.13] (Eterna round: R97, puzzle: Exclusion 2) | – | 0.0158 | 0.014 | –
AGUAGUAGUAUCCGAUCCGACAUGAGGAUCACCCAUGUAGCUAGACGUGCACGCGAUGCUCGUCAGACUACCAGAUG [salish99_TOv1_r3_037] (puzzle: Sensor v3, turn-off variant 1) | 0.1 | – | – | apparent KD of MS2 coat protein [3]: 0.102 µM; apparent KD of MS2 coat protein [4]: 0.0741 µM
AACGUGUGAGGAUAUGCCGUGCCCUUCCGGAAGGAGCGGGUGCAGAAGGCACAUGAGGAUCACCCAUGUCGGCA [Excls4-V] (puzzle: Exclusion 4) | 0.0314 | – | – | –
GGAUCGAAUGUGAGGAUAUACCACUGGAUACAGUGGUAGAAGGCACAUGAGGAUCACCCAUGUCCUUACGAUCC [Fiskers BMX 4 - 47] (puzzle: Brourd's mod of Exclusion 4) | 0.0742 | – | – | –
AGUACUAUCACGAAAGUGAUAGUACAAAAAGCAAGUGAAACAUGAGGAUCACCCAUGUCCUCAUUUGCUCGUCUUAU [Identical to 94% Sensor v2, turnoff variant 2] (puzzle: Sensor v3, turn-off variant 2) | 0.476 | – | – | apparent KD of MS2 coat protein [3]: 0.0168 µM; apparent KD of MS2 coat protein [4]: 0.0127 µM

Sequence | apparent KD of MS2 coat protein [1] [µM] | apparent KD of MS2 coat protein (input ligand: FMN 200 uM) [µM] | apparent KD of MS2 coat protein (input ligand: none) [µM] | further results
AUUGUAGAUGUGAGGAUAUCGUAGAUUUUUUGAAACGAGAAGGCACAUGAGGAUCACCCAUGUAAGAUGUAGGU [JR_BMOE4_Sub053] (puzzle: Brourd's mod of Exclusion 4) | 0.118 | – | – | apparent KD of MS2 coat protein [3]: 0.0458 µM; apparent KD of MS2 coat protein [4]: 0.298 µM
CGUUCCACAGGAUAUACAAAACGUAUCCCAGGGCUAACAGGACAUGAGGAUCACCCAUGUAGAAGGGUGGAACU [Eternabot (L1) Solution 36] (Eterna round: R97, puzzle: Exclusion 2) | – | 0.571 | 0.674 | –
AAGAAACAUGAGGAUCACCCAUGUGAGGAUAUGAAAAAGAAAAGAAAAGAAAGAAGAAUCAGAAGGCACAAAGA [salish99-ex1_r3_080] (puzzle: Exclusion 1) | 0.0222 | – | – | apparent KD of MS2 coat protein [3]: 0.0269 µM; apparent KD of MS2 coat protein [4]: 0.0271 µM
GAGUGCUGAGGAUAUACAUGAGGAUCACCCAUGUGCUUCAGCUAGGAGACUAGCAUUGGUAGAAGGUAGUACUC [LRO-Excl3-02] (puzzle: Exclusion 3) | 0.0106 | – | – | –
AUGAGGUUAGGAUAUACAUGAGGAUCACCCAUGUUGGAGAAGGAAAUGUAAGUAGCGAGUAGAAGGAACGGAGC [JR_Exclu3_Sub059] (puzzle: Exclusion 3) | 0.0441 | – | – | –
GGCACACAUGAGGAUCACCCAUGUGAGGAUAUGUGGCGAUCGUCGAUAGACGAUAGCCACAGAAGGCACAUGCC [Mat - Exclusion 1 - Eli Mod - D9] (Eterna round: R97, puzzle: Exclusion 1) | – | 0.0394 | 0.0178 | –
CACACACAUGAGGAUCACCCAUGUCAGGAUAUCGACACACACCCACACAAACAAACCACGAGAAGGGACGGCCA [E4 1] (Eterna round: R97, puzzle: Exclusion 1) | – | 0.037 | 0.0486 | –
CCAAACAGAGGAUAUGCGAAUAAAUAAAACUUUUUUUUUUAACAUGAGGAUCACCCAUGUAGAAGGCUGCAACC [Ex2 #40] (Eterna round: R97, puzzle: Exclusion 2) | – | 0.0244 | 0.0195 | –
UGUGUGUGACAGGAUAUGCAGGUAAUGAGACGGGUAGAAGGGUCUACAUGAGGAUCACCCAUGUGGCCGGUUGG [Ex6 #62] (Eterna round: R97, puzzle: Exclusion 6) | – | 0.0177 | 0.0164 | –
UUCCUGUCAGGAUAUGACUAGAUGCACGUUAGUGUGUUUACUUAGAAGGGACAUGAGGAUCACCCAUGUAGUCC [Bring Us a Shrubbery-16] (puzzle: Exclusion 4) | 0.0317 | – | – | –
AAUAACAGAGGAUAUACUAUUUUAUGUAUUUAUUAUUUUGAACAUGAGGAUCACCCAUGUAGAAGGCUGAAUGA [JMF 62] (puzzle: Exclusion 2) | 0.0244 | – | – | –
GACUGCCGAGGAUAUACAUGAGGAUCACCCAUGUGCUUCAGCAUUUUUUGAUGCAUGGGUAGAAGGCGGUAGUU [LRO-Excl3-15] (puzzle: Exclusion 3) | 0.341 | – | – | –
CAGUACUGAGGAUAUACAUGAGGAUCACCCAUGUGUCUUCUAUUAGGAAACUAGUUAUGUAGAAGGCAGUACUG [Omei Ex3 Mod of Eli 4.27 v8] (Eterna round: R97, puzzle: Exclusion 3) | – | 0.221 | 0.0169 | –
GUGAACGGAGGAUAUAUAUGGGCAGCAUACGCUGCAGCUUCACAUGAGGAUCACCCAUGUAGAAGGCUGUACAC [Mat - Exclusion 2 - Mod of Hyphema - D101] (puzzle: Exclusion 2) | 0.00826 | – | – | –
GGUACUAUCACCUGAGUGGUAGUGCCACAAGCUUGUGAUACAUGAGGAUCACCCAUGUCCUCAUUUGCUCGUCUUAU [JL-sv3-2.28 JL mod] (puzzle: Sensor v3, turn-off variant 2) | 1.08 | – | – | apparent KD of MS2 coat protein [3]: 0.289 µM; apparent KD of MS2 coat protein [4]: 0.343 µM
AGUACUGACACGUUGGUGUUAGUACAAUAAGCUUGUGUUACAUGAGGAUCACCCAUGUCCUCAUAAGCUCGUCUUAU [salish99_TOv2_r2_095] (puzzle: Sensor v3, turn-off variant 2) | 0.0384 | – | – | apparent KD of MS2 coat protein [3]: 0.117 µM; apparent KD of MS2 coat protein [4]: 0.138 µM
GUACUGACAGGAUAUACAUGAGGAUCACCCAUGUGCCUUAUCGCUACAAAAGUAGCGAGUAGAAGGGUCUGUAC [Omei Ex3 Model Bachelor's Dilema v18] (Eterna round: R97, puzzle: Exclusion 3) | – | 0.0271 | 0.0166 | –
AUAGAGUCAGGAUAUACAGGUGGAGGAGAGCAGCAUAAGGAGUAGAAGGGACAUGAGGAUCACCCAUGUAAGUG [JR_Exclu4_Sub059] (puzzle: Exclusion 4) | 0.0639 | – | – | apparent KD of MS2 coat protein [3]: 0.0459 µM; apparent KD of MS2 coat protein [4]: 0.0569 µM
